# Assay results taken from the RNAGym collection of RNA variant scans (doi:10.1073/pnas.2313332121).
# B1: TPR t1 (parent)
# chain: GACCAAUCUGCCCUCAGAGCUCGAGAACAUCUUCGGAUGCAGAGGAGGCAGGCUUCGGUGGCGCGAUAGCGCCAACGUCCUCAACCUCCAAUGCAUCCCACCACAUGAUGAUGCCUGAAGAGCCUUGGUUUUUUG
# Variants of: B1
# Experiment: polymerase ribozyme fitness, log enrichment relative to wild type (log ratio); higher = more active; in vitro selection for triplet polymerase activity
# How it was run: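 Mutant libraries were PCR-built and transcribed for each subunit of a heterodimeric triplet polymerase ribozyme and selected for one round in triplicate at −7 °C, frozen, before gel excision of extended constructs and streptavidin-bead capture. Input and output libraries were Illumina-sequenced, keeping genotypes with ≥10 input reads and ≥1 read per output. Fitness is a logarithmic ratio of genotype to wild-type enrichment, in base 2, using inverse-variance-weighted replicate averages.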
row,Variant,polymerase ribozyme fitness (log ratio)
1,GACCAAGCUGCCCUCAGAGCUCGAGAACAUCUUCGGAUGCAGAGGAGGCAGGCUUCGGUGGCGCGAUAGCGCCAACGUCCUCAACCUCCAAUGCAUGCCACCACAUGAUGAUGCCUGAAGAGCCUUGGUUUUUUG [U7G C97G],-3.9
2,GACCAAGCUGCCCUCAGAGCUCGAGAACAUCUUCGGAUGCAGAGGAGGCAGGCUUCGGUGGCGCGAUAGCGCCAACGUCCUCAACCUCCAAUGCAUCCCACAACAUGAUGAUGCCUGAAGAGCCUUGGUUUUUUG [U7G C102A],-0.8
3,GACCAAGCUGCCCUCAGAGCUCGAGAACAUCUUCGGAUGCAGAGGAGGCAGGCUUCGGUGGCGCGAUAGCGCCAACGUCCUCAACCUCCAAUGCAUCCCACCAAAUGAUGAUGCCUGAAGAGCCUUGGUUUUUUG [U7G C104A],-2.23
4,GACCAAGCUACCCUCAGAGCUCGAGAACAUCUUCGGAUGCAGAGGAGGUAGGCUUCGGUGGCGCGAUAGCGCCAACGUCCUCAACCUCCAAUGCAUCCCACCACAUGAUGAGGCCUGAAGAGCCUUGGUUUUUUG [U7G G10A C49U U112G],-2.64
5,GACCAAGCUUCCCUCAGAGCUCGAGAACAUCUUCGGAUGCAGAGGAGGCAGGCUUCGGUGGCGCGAUAGCGCCAACGCCCUCAACCUCCAAUGCAUCCCAACACAUGAUGAUGCCUGAAGAACCUUGGUUUUUUG [U7G G10U U78C C101A G122A],-1.81
6,GACCAAGCUGCCCUCAAAGCUCGAGAACAUCUUCGGAUACAGAGGAGGCAGGCUACGGUGGCGCGAUAGCGCCAACGUCCUGAACCUCCAAUGCAUCCCACCACAUGAUGAUGCAUGAAGAGCCUUGGUCUUUUG [U7G G17A G39A U55A C82G C115A U130C],-2.79
7,GACCAAGCUGCCCUCAUAGCUCGAGAAUAUCUUCGGAUGCAGAGGAGGCAGGCUUCGGUGGCGCGAUAGCGCCAACGUCCUCAACCUCCCAUGCAUCCCACCACAAGAUGAUGCCUGAAGAGCCUUGGUUUUUUG [U7G G17U C28U A90C U106A],-2.82
8,GACCAAGCUGCCCUCAUAGCUCGAGAACAUCUUCGGAUGCAGAGGAGGCAGGCUUCGGUGUCGCGAUAGCGCCAACGUCCUCAACCUCCAAUGCAUCCCACCACAUGAUGAUGCCUGAAGAGCCUUGGUUUUUUG [U7G G17U G61U],-0.326
9,GACCAAGCUGCCCUCAGAACUCGAGAACAUCUUCGGAUGCAGACGAGGCAGGCUUCGGUGGCGCGAUAGCGCCAACGUCCUCAACCUCCAAUGCAUCCCACCACAUGAUGAUGGCUGAAUAGCCUUGGUUUUUUG [U7G G19A G44C C114G G120U],-3.21
10,GACCAAGCUGCCCUCAGAGCUCAAGAACAUCUUCGGAUGCAGAGGAGGCAGGCUUCGGUGGCGCGAUAGCGCCAACGUCCUCAACCUCCAAUGCAUCCCACCACAUGAUGAUGCCUGAAGAGCCUUGGUUUUUUG [U7G G23A],-4.28
11,GACCAAGCUGCCCUCAGAGCUCCAGAACAUCUUCGGAUGCAGAGGAGGCAGGCUUCGGUGGCGCGAUAGCGCCAACGUCCUUAACGUCCAAUGCAUCCCACCACAUGAUCAUGCCUGAAGAGCCUUGGUUUUUUG [U7G G23C C82U C86G G110C],-7.53
12,GACCAAGCUGCCCUCAGAGCUCGAGAACAUCUUCUGAUGCAGAGGAGGCAGGCUUCUGUGGCGCGAUAGCGCCAACGUCCUCAACCACCAAUGCAUCCCACCACAUGAUGAUGCCUGAAGGGCCUUGGUUUUUUG [U7G G35U G57U U87A A121G],-3.9
13,GACCAAGCUGCCCUCAGAGCUCGAGAACAUCUUCGCAUGCAGAGGAGGCAGGCUUCGGUGGCGCGAUAGCGCCAACGUCCUCAACCUCCAAUGCAUCCCACCACAUGAUGAUGCCUGAAGAGCCUUGGUUUUUUG [U7G G36C],0.162
14,GACCAAGCUGCCCUCAGAGCUCGAGAACAUCUUCGGAUGCAAAGGAGGCAGGCUUCGGUGGCGCGAUAGCGCCAACGUCCACAACCUCCAAUGCAUCCCACCACAUGAAGAUGCCUGAAGAGCCUUGGUCUUUUG [U7G G42A U81A U109A U130C],-5.79
15,GACCAAGCUGCCCUCAGAGCUCGAGAACAUCUUCGGAUGCAGAAGAGGCAGGCUUCGGUGGGGCGAUAGCGCCUACGUCGUCAACCUCCAAUGCAUCCCACCACAUGAUGAUGCCUCAAGAGCCUUGGUUUUUUG [U7G G44A C62G A74U C80G G117C],-7
16,GACCAAGCUGCCCUCAGAGCUCGAGAACAUCUUCGGAUGCAGAUGAGGCAGCCUUCGGUGGCGCGAUAGCGCCAACGUCCUGAACCUCCAAUGCAUCCCACCACAUGAUGAUACCUGAAGAGCUUUGGUUUUUUG [U7G G44U G52C C82G G113A C124U],-3
17,GACCAAGCUGCCCUCAGAGCUCGAGAACAUCUUCGGAUGCAGAGAAGGCAGGCUUCGGGGGCGCGAUAGCGCCAACGUCCUCAACCUCCAAUGCAUCCCACCACAUGAUGAUGCCUGAAGAGCCUUGGAUUUUUG [U7G G45A U59G U129A],-1.45
18,GACCAAGCUGCCCUCAGAGCUCGAGAACAUCUUCGGAUGCAGAGCAGGCAGCCUUCGGUGGCGCGAUAGCGCCAACGUUCUCAACCUCCAAUGCAUCCCACAACAUGAUGAUGCCUGAAGAGCCUUGGUUUUUUG [U7G G45C G52C C79U C102A],-3.37
19,GACCAAGCUGCCCUCAGAGCUCGAGAACAUCUUCGGAUGCAGAGGAGGCAUGCUUCGGUUGCGCGAUAGCGCCAACGUCCUCAACCUCCAAUGCAUCCCACCACAUGAUGCUGCCUGAAGAGCCUUGGUUUUUUG [U7G G51U G60U A111C],-2.64
20,GACCAAGCUGCCCUCAGAGCUCGAGAACAUCUUCGGAUGCAGAGGAGGCAGUCUUCGGUGGCGUGAUAGCGCCAACGUCCUCAACCUCCAAUGCAUCCCACCACAUGAUGAUGCCUGAAGAGGCUUGGUUUUUUG [U7G G52U C64U C123G],1.52
21,GACCAAGCUGCCCUCAGAGCUCGAGAACAUCUUCGGAUGCAGAGGAGGCAGGCUUCGGUGACGCGAUAGCGCCAAAGUCCUCAACCUCCAAUGAAUCCCACCACAUGAUCAUGCCUCAAGAGCCUUGGUUUUUUG [U7G G61A C76A C94A G110C G117C],-7.29

row,Variant,polymerase ribozyme fitness (log ratio)
1,GACCAAGCUGCCCUCAGAGCUCGAGAACAUCUUCGGAUGCAGAGGAGGCAGGCUUCGGUGUCGCGAUAGGGCCAACGUCCUCAACCUCCAAUGCAUCCCACCACAUGAUGAUGCCUGAAGAGCCUUGGUUUUUUG [U7G G61U C70G],-5.24
2,GACCAAGCUGCCCUCAGAGCUCGAGAACAUCUUCGGAUGCAGAGGAGGCAGGCUUCGGUGGCGCUAUAGCGCCAACGUCCUCAACCUCCAAUGCAUCCCACCACAUGAUGAUGCCUGAAAAGCCUUGGUUUUUUG [U7G G65U G120A],-4.13
3,GACCAAGCUGCCCUCAGAGCUCGAGAACAUCUUCGGAUGCAGAGGAGGCAGGCUUCGGUGGCGCGAUACCGCCAACGUCCUCAACUUCCAAUGCAUCCCACCACAUGAUGAUGCCUGAAGAGCCUUGGUUUUUUG [U7G G69C C86U],-1.06
4,GACCAAGCUGCCCUCAGAGCUCGAGAACAUCUUCGGAUGCAGAGGAGGCAGGCUUCGGUGGCGCGAUAGCCCCAACGUCCUCAACCUCCAAUGCAUCCCACCACAUGAUGGUGCUUGAAUAGCCUUGGUUUUUUG [U7G G71C A111G C115U G120U],-4.01
5,GACCAAGCUGCCCUCAGAGCUCGAGAACAUCUUCGGAUGCAGAGGAGGCAGGCUUCGGUGGCGCGAUAGCGCCAACCUCCUCAACCUCCAAUGCAUCCCACCACAUGAUGAUGCCUGAAGAGCCUUGGUUUUUUG [U7G G77C],0.424
6,GACCAAGCUGCCCUCAGAGCUCGAGAACAUCUUCGGAUGCAGAGGAGGCAGGCUUCGGUGGCGCGAUAGCGCCAACGUCCUCAACCUCCAAUGCAUCCCACCACAUAAUGAUGCCUGAAGAGCCUUGGUUUUUUG [U7G G107A],-4.15
7,GACCAAGCUGCCCUCAGAGCUCGAGAACAUCUUCGGAUGCAGAGGAGGCAGGCUUCGGUGGCGCGAUAGCGCCAACGUCCUCAACCUCCAAUGCAUCCCACCACAUGAUGAUGCCUGAACAGCCUUGGUUUUUUG [U7G G120C],0.815
8,GACCAAGCUGCCCGCAGAGCUCGAGAACAUCUUGGGAUGCAGAGGAGGCAGGCUUCGGUGGCGCGAUAGCGCCAACGUCCUCAACCUCCAAUGCAUCCCACCACAUGAUGAUGCCUGAAGAGCCUUGGUUUUUUG [U7G U14G C34G],-5.56
9,GACCAAGCUGCCCUCAGAGCACGAGAACAUCUUCGGAUGCAGAGGAGGCAGGCUGCGGUGGCGCGAUAGCGCCAACGUCCUCAACCUCCAAUGCAUCCCACCACAUGAUGAUGCCUGAAGCGCCUUGGUUUUUUG [U7G U21A U55G A121C],1.32
10,GACCAAGCUGCCCUCAGAGCCCGAGAACAUCUUCGGAUGCAGAGGAUGCAGGCUUUGGUGGCGCGAUAGCGCCAACGUCCUCAACCUCCAAUGCAUCCCACCACAUGAUGAUGCCUGAAGAGCCUUGGUUUUUUG [U7G U21C G47U C56U],-1.15
11,GACCAAGCUGCCCUCAGAGCUCGAGAACAACUUCGGAUGCAGAGGAGGCAGGCUUCGGUGGCGCGAUAGCGCCAACGUCCUCAACCUCCAAUGCAUCCCAUCACAUGAAGAUGCCUGAAGAGCAUUGGUUUUUUG [U7G U30A C101U U109A C124A],-3.51
12,GACCAAGCUGCCCUCAGAGCUCGAGAACAUCGUCGGAUGCAGAGGAGGCAGGCUUCGGUGGCGCGAUAGCGCCAACGUCCUCAACCUCCAAUGCAUCACACCACAUGAUGAUGCCUGAAGAGCCUUGGUUUUUUG [U7G U32G C98A],-5.15
13,GACCAAGCUGCCCUCAGAGCUCGAGAACAUCUUCGGAUGCAGAGGAGGCAGGCUGCGGUGGCGCGAUAGCGCCAACGUCCUUAACCUCCAAUGCAUCCCACCACAUGAUGAUGCCUGAAGAGCCUUGGUUUUUUG [U7G U55G C82U],0.425
14,GACCAAGCUGCCCUCAGAGCUCGAGAACAUCUUCGGAUGCAGAGGAGGCAGGCUUCGGAGGCGCGAUAGCGCCAACGUCCUCAACCUCCAAUGCAUCCCACCACAUGAUGAUGCCUGAAGAGCCUUGGUGUUUUG [U7G U59A U130G],-0.396
15,GACCAAGCUGCCCUCAGAGCUCGAGAACAUCUUCGGAUGCAGAGGAGGCAGGCUUCGGUGGCGCGAUAGCGCCAACGUCCUCAACCUCCAAUGCAUCCCACCACAUGACGAUGCCUGAAGAGCCUUGGUUUUUUG [U7G U109C],-3.87
16,GACCAAGCUGCCCUCAGAGCUCGAGAACAUCUUCGGAUGCAGAGGAGGCAGGCUUCGGUGGCGCGAUAGCGCCAACGUCCUCAACCUCCAAUGCAUCCCACCACAUGAUGAUGCCUGAAGAGCCUUGGAUUUUUG [U7G U129A],-0.778
17,GACCAAUAUGCCCUCAGAGCUCGAGAACAUCUUCGGAUGCAGAGGAGGCAGGCUUCGGUGGCGCGAUAGCGCCAACGUCCUCAACCUCCAAUGCAUCCCACCACAUGAUGAUGCCUGAAGAGCCUUGGUUUUUUG [C8A],0.459
18,GACCAAUAUGCCCUCGGAGCUCGAGAACAUCUUCGGAUGCAGCGGAGGCAGGCUUCGGUGGCGCGAUAGCGCCAACGUCCUCAACCUCCAAUGCAUCCCACCACAUGAUGAUGCCUGAAGAGCCUUGGUUUUUUG [C8A A16G A43C],-1.35
19,GACCAAUAUGCCCUCAGCGCGCGAGAACAUCUUCGGAUGCAGAGGAGGCAGGCUUCGGUGGCGCGAUAGCGCCAACGUCCUCAACCUCCAAUGCAUCCCACCACAUGAUGAUGCCUGAAGAGCCUUGGUUUUUUG [C8A A18C U21G],-4.13
20,GACCAAUAUGCCCUCAGGGCUCGAGAACAUCUUCGGAUGCAGAGGAGGCAGGCUUCGGUGGCGCGAUAGCGCCAACGUCCUCAACCUCCAAUGCAUCCCACCACAUGACGAUGCAUGAAGAGCCUUGGUUUUUUG [C8A A18G U109C C115A],-5.42
21,GACCAAUAUGCCCUCAGUGCUCGAGAACAUCUUCGGAUGCAGAGCAGGCAGGCUUCGGUGGCGCGAUAGCGCCAACGUCCUCAACCUCCAAUGCAUCCCACCACAUGAAGAUGCCUGAAGAGCCUUGGUUUUUUG [C8A A18U G45C U109A],-5.8
